Molecular target: hMutSα (hMSH2-hMSH6), wild type (human, UniProt P43246 1-934; P52701 1-1360)
Assay: pull-down

B1: biotin-labeled histone H3 peptide with di-methylated K36 (peptide)
peptide: ARKSAPATGGVKKPHRYRP
modifications: dimethyl-lysine at K36; biotin (position not given)
- binding result: binds
